Experiments:
[1] = molecular target: LpoA, soluble (LpoAΔ1–27) (E. coli) (UniProt P45464); assay: MST; one protein fluorescently labelled (NT-647 dye) at a fixed concentration, two-fold serial dilution of unlabelled ligand over 16 samples; 25 mM HEPES/NaOH, 150 mM NaCl, 0.05% Triton X-100, pH 7.5; Monolith NT.115; apparent KD
[2] = molecular target: EnvC, soluble version without the N-terminal 34 amino acid signal peptide (E. coli) (UniProt P37690); assay: as above
[3] = molecular target: LpoA^N, N-terminal domain of LpoA (residues G28-T256) (E. coli) (UniProt P45464); assay: as above
[4] = molecular target: PBP4ΔD3 (PBP4 lacking domain 3), His-tagged (E. coli) (UniProt P24228); assay: AUC; sedimentation velocity, 45,000 rpm, 20°C, 25 mM HEPES/NaOH, 150 mM NaCl, pH 7.5, about 0.25 to 1.4 mg/ml; c(s) analysis
[5] = molecular target: PBP4 (penicillin binding protein 4, DD-carboxy/endopeptidase), purified, untagged (E. coli) (UniProt P24228); assay: as above
[6] = molecular target: T1, PBP4 (penicillin binding protein 4, DD-carboxy/endopeptidase), purified, untagged (E. coli, UniProt P24228 61-477); assay: MST
T1 chain: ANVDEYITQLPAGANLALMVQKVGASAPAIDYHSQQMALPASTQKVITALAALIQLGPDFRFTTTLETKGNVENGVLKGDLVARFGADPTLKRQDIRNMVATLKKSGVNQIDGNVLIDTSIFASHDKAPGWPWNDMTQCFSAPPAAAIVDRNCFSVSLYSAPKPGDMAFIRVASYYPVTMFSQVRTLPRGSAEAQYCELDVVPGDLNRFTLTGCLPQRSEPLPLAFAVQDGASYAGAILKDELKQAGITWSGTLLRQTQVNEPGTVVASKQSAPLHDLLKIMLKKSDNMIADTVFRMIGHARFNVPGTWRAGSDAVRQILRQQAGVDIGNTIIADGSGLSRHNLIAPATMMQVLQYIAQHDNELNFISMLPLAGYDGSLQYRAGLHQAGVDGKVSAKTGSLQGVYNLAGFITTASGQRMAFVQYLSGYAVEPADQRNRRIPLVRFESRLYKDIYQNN

[7] = molecular target: PBP4ΔD3 (PBP4 lacking domain 3), His-tagged (E. coli, UniProt P24228 21-477, PBP4Δ173–247 (domain 3)); assay: MST
[8] = molecular target: T2, EnvC, soluble version without the N-terminal 34 amino acid signal peptide (E. coli, UniProt P37690 35-419); assay: MST; one protein fluorescently labelled (NT-647 dye) at a fixed concentration, two-fold serial dilution of unlabelled ligand over 16 samples; 25 mM HEPES/NaOH, 150 mM NaCl, 0.05% Triton X-100, pH 7.5; Monolith NT.115; apparent KD; conditions: both partners purified
T2 construct: EnvC of E. coli, soluble version without the N-terminal, 34 amino acid long, signal peptide; the text calls it full-length EnvC; In MST fluorescently labelled (Fl-EnvC) in some runs; also called full-length EnvC; Fl-EnvC; source: E. coli BL21(DE3) pET28a-His-EnvC, purified (HisTrap, thrombin, Superdex 200)
T2 sequence (looked up): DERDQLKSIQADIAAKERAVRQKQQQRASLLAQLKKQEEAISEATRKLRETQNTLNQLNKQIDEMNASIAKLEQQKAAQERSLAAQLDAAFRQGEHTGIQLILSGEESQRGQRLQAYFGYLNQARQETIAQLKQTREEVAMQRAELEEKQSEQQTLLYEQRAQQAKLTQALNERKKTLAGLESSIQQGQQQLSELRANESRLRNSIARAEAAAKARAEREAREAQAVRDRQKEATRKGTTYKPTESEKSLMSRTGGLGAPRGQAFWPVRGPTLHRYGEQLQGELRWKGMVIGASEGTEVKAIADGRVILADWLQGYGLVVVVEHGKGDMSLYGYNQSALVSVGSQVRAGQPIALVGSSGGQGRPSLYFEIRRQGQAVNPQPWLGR

[9] = molecular target: T2, EnvC, soluble version without the …; assay: pull-down; Ni-NTA beads; equimolar (1–2 μM) His-tagged and untagged proteins; 10 mM HEPES/NaOH, 10 mM MgCl2, 150 mM NaCl, 0.05% Triton X-100, pH 7.5, 4°C; washes with 30 mM imidazole; SDS-PAGE; His-NlpI also with PBP4 and EnvC together; conditions: both partners purified

Q: How did the Kd [1] turn out when “PBP4ΔD3 (PBP4 lacking domain 3), His-tagged (from UniProt P24228 21-477) (enzyme)” was run?
A: The Kd was 153 nM.

Q: What about the Kd [2] of the same molecule?
A: The Kd was over 5900 nM.

Q: And the fold decrease of app. KD against PBP4 [3]?
A: The fold decrease of app. KD against PBP4 was 50 fold.

Q: And the stoichiometry N [4]?
A: Its stoichiometry N is 2.

Q: “PBP4 (penicillin binding protein 4, DD-carboxy/endopeptidase), purified, untagged (from UniProt P24228 61-477) (enzyme)” was tested. Which Kd [1] did it give?
A: The Kd was 315 nM.

Q: What about the Kd [2] of the same molecule?
A: The Kd was 307 nM.

Q: What about the stoichiometry N [5] of the same molecule?
A: The stoichiometry N was 2.

B1: LpoA^C, C-terminal domain of LpoA (residues N257-S678) (domain or fragment)
chain: NKIALLLPLNGQAAVFGRTIQQGFEAAKNIGTQPVAAQVAAAPAADVAEQPQPQTVDGVASPAQASVSDLTGEQPAAQPVPVSAPATSTAAVSAPANPSAELKIYDTSSQPLSQILSQVQQDGASIVVGPLLKNNVEELLKSNTPLNVLALNQPENIENRVNICYFALSPEDEARDAARHIRDQGKQAPLVLIPRSSLGDRVANAFAQEWQKLGGGTVLQQKFGSTSELRAGVNGGSGIALTGSPITLRATTDSGMTTNNPTLQTTPTDDQFTNNGGRVDAVYIVATPGEIAFIKPMIAMRNGSQSGATLYASSRSAQGTAGPDFRLEMEGLQYSEIPMLAGGNLPLMQQALSAVNNDYSLARMYAMGVDAWSLANHFSQMRQVQGFEINGNTGSLTANPDCVINRNLSWLQYQQGQVVPVS
Q: With B1 as the molecule, how does the Kd [6] read?
A: The Kd was 226 nM.

Q: What about the Kd [7] of the same molecule?
A: Its Kd is 315 nM.

B2: PBP1A, purified (full length His-PBP1A) (enzyme)
chain: MKFVKYFLILAVCCILLGAGSIYGLYRYIEPQLPDVATLKDVRLQIPMQIYSADGELIAQYGEKRRIPVTLDQIPPEMVKAFIATEDSRFYEHHGVDPVGIFRAASVALFSGHASQGASTITQQLARNFFLSPERTLMRKIKEVFLAIRIEQLLTKDEILELYLNKIYLGYRAYGVGAAAQVYFGKTVDQLTLNEMAVIAGLPKAPSTFNPLYSMDRAVARRNVVLSRMLDEGYITQQQFDQTRTEAINANYHAPEIAFSAPYLSEMVRQEMYNRYGESAYEDGYRIYTTITRKVQQAAQQAVRNNVLDYDMRHGYRGPANVLWKVGESAWDNNKITDTLKALPTYGPLLPAAVTSANPQQATAMLADGSTVALSMEGVRWARPYRSDTQQGPTPRKVTDVLQTGQQIWVRQVGDAWWLAQVPEVNSALVSINPQNGAVMALVGGFDFNQSKFNRATQALRQVGSNIKPFLYTAAMDKGLTLASMLNDVPISRWDASAGSDWQPKNSPPQYAGPIRLRQGLGQSKNVVMVRAMRAMGVDYAAEYLQRFGFPAQNIVHTESLALGSASFTPMQVARGYAVMANGGFLVDPWFISKIENDQGGVIFEAKPKVACPECDIPVIYGDTQKSNVLENNDVEDVAISREQQNVSVPMPQLEQANQALVAKTGAQEYAPHVINTPLAFLIKSALNTNIFGEPGWQGTGWRAGRDLQRRDIGGKTGTTNSSKDAWFSGYGPGVVTSVWIGFDDHRRNLGHTTASGAIKDQISGYEGGAKSAQPAWDAYMKAVLEGVPEQPLTPPPGIVTVNIDRSTGQLANGGNSREEYFIEGTQPTQQAVHEVGTTIIDNGEAQELF
Q: What does the source list for B2?
A: Kd [6]: 67 nM; Kd [7]: 240 nM

B3: LpoA^N, N-terminal domain of LpoA (residues G28-T256) (domain or fragment)
chain: GTHTPDQSTAYMQGTAQADSAFYLQQMQQSSDDTRINWQLLAIRALVKEGKTGQAVELFNQLPQELNDAQRREKTLLAVEIKLAQKDFAGAQNLLAKITPADLEQNQQARYWQAKIDASQGRPSIDLLRALIAQEPLLGAKEKQQNIDATWQALSSMTQEQANTLVINADENILQGWLDLQRVWFDNRNDPDMMKAGIADWQKRYPNNPGAKMLPTQLVNVKAFKPAST
Q: For B3, which Kd [6] is on record?
A: Its Kd is 954 nM.

Q: What about the Kd [7] of the same molecule?
A: The Kd was 17 nM.

B4: NlpI, soluble, as used in microscale thermophoresis (natural protein, E. coli, UniProt P0AFB1 19-294, looked up)
chain: CSNTSWRKSEVLAVPLQPTLQQEVILARMEQILASRALTDDERAQLLYERGVLYDSLGLRALARNDFSQALAIRPDMPEVFNYLGIYLTQAGNFDAAYEAFDSVLELDPTYNYAHLNRGIALYYGGRDKLAQDDLLAFYQDDPNDPFRSLWLYLAEQKLDEKQAKEVLKQHFEKSDKEQWGWNIVEFYLGNISEQTLMERLKADATDNTSLAEHLSETNFYLGKYYLSLGDLDSATALFKLAVANNVHNFVEHRYALLELSLLGQDQDDLAESDQQ
notes: NlpI, outer membrane lipoprotein of E. coli, 'Soluble NlpI construct'; In some MST runs fluorescently labelled (Fl-NlpI); also called Fl-NlpI; source: purified from overexpression strain according to published procedures [55]; (plasmid pET28a-His-NlpI)
Q: Does B4 bind [8]?
A: Result: binds

Q: And the Kd [6]?
A: Its Kd is 177 nM.

B5: His-NlpI (oligo-histidine tagged soluble NlpI) (natural protein, E. coli, UniProt P0AFB1 19-294, looked up)
chain: CSNTSWRKSEVLAVPLQPTLQQEVILARMEQILASRALTDDERAQLLYERGVLYDSLGLRALARNDFSQALAIRPDMPEVFNYLGIYLTQAGNFDAAYEAFDSVLELDPTYNYAHLNRGIALYYGGRDKLAQDDLLAFYQDDPNDPFRSLWLYLAEQKLDEKQAKEVLKQHFEKSDKEQWGWNIVEFYLGNISEQTLMERLKADATDNTSLAEHLSETNFYLGKYYLSLGDLDSATALFKLAVANNVHNFVEHRYALLELSLLGQDQDDLAESDQQ
notes: NlpI, outer membrane lipoprotein of E. coli, 'Soluble NlpI construct'; Bait on Ni-NTA beads; also called oligohistidine-tagged-NlpI; source: purified from overexpression strain according to published procedures [55]; (plasmid pET28a-His-NlpI); not shown: His, N-terminal, kept
Q: Does B5 bind [9]?
A: Result: binds

From PMC9166362, “Early midcell localization of Escherichia coli PBP4 supports the function of peptidoglycan amidases” (PLoS Genetics, 2022)
